The data set has as its system MS2 coat protein. Briefly: apparent KD of MS2 coat protein; designed switch direction (-1 OFF switch, 1 ON switch): -1; higher = weaker reporter binding. The method, boiled down: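 SNAP-549-labelled MS2 coat protein was titrated, doubling from 0.7 or 1.5 nM to 3 µM, over designed RNA switches transcribed on Illumina chips by stalled E. coli RNA polymerase. Runs were done without input, with 200 uM small-molecule ligand, or with an oligonucleotide input. Apparent KD is the per-design median over clusters of curve-fitted normalised fluorescence.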

Setting [1] is: input ligand: microRNA oligo, concentration not stated.
Setting [2] is: Eterna round: R95, input ligand: FMN 200 uM.
The mark [3] stands for this setting: Eterna round: R95, input ligand: microRNA oligo, concentration not stated.
Setting [4] is: Eterna round: R95, input ligand: none.

As for “GGUACUCAAAGAGUACCAAUACGAACAUGAGGAUCACCCAUGUAGGAUAUGCUACUCAAAGAGUAGCAGAAGGAUAUGAUGUAU [Far Half Aptamer v17] (Eterna round: R96, puzzle: Exclusion NG 3)”, the “apparent KD of MS2 coat protein” value under setting [1] was determined as 27.6 nM.

As to “GGUAGAGUGGUAGGAUAUCCGUCUGUUUCAGUCGGAGAAGGACCACAGUCACUGGGUCCAAAUAUGGGUGACCAUGUAUCUACC [pwkr exNG1 F6.3] (Eterna round: R96, puzzle: Exclusion NG 1)”, the “apparent KD of MS2 coat protein” value was found to be 622 nM (input ligand: FMN 200 uM), 358 nM under setting [1] and 392 nM (input ligand: none).

“GGUAGCUGAGGAUAUGCAGACGACCCUCAGUGCUGGCUUGCACAUGAGGAUCACCCAUGUAGAAGGCAGAAGCU [Eternabot (L2) Solution 5] (Eterna round: R97, puzzle: Exclusion 2)”: the “apparent KD of MS2 coat protein” value reads like this: (input ligand: FMN 200 uM) 56 nM; (input ligand: none) 57.5 nM.

In the case of “GGUAGGUGUGACUUGGGUGACAUGAGGAUCACCCAUGUCACAAGCUUGUUGCUCGCCUUGUAGUUAACCCAUGUCAC [LRO Sensor-off var1-30 mod of Stov1-13-A1 by Brourd] (Eterna round: R97, puzzle: Sensor, turn-off variant 1)”, the “apparent KD of MS2 coat protein” value runs as follows: (input ligand: FMN 200 uM) 34.1 nM; (input ligand: none) 34.5 nM.

Take “GGUCAAGAACAGAUCCGCGCUGUCAUUGACCGCUCAUUUACAUGAGGAUCACCCAUGUUUUUUGCUUGUCUUGUUAC [Edrama] (puzzle: Sensor v3, turn-off variant 2)”: the “apparent KD of MS2 coat protein” value was found to be 19.6 nM under setting [2], 88.3 nM under setting [3] and 18.2 nM under setting [4].

As to “GGUCAGAUGGUAGGAUAUCCAUAUCGAGUGACCCUUUUAUAACAUGAGGAUCACCCAUGUCGGUGGGAGAAGGGCCGUACGGCG [salish99_ExNG02_R04_018] (Eterna round: R96, puzzle: Exclusion NG 2)”, the “apparent KD of MS2 coat protein” value runs as follows: (input ligand: FMN 200 uM) 244 nM; under setting [1], 129 nM; (input ligand: none) 224 nM.

On to “GGUCAGAUGGUAGGAUAUUUAUAUCGAGUGACCCUUUCAUAACAUGAGGAUCACCCAUGUCGGUGGGAGAAGGGCCGUACGGCG [salish99_ExNG02_R04_013] (Eterna round: R96, puzzle: Exclusion NG 2)”, for which the “apparent KD of MS2 coat protein” value (input ligand: FMN 200 uM) turned out to be 37.7 nM, the “apparent KD of MS2 coat protein” value under setting [1] was found to be 33.1 nM and the “apparent KD of MS2 coat protein” value (input ligand: none) was 45.7 nM.

As to “GGUCAGCUAGGAUAUACAUGAGGAUCACCCAUGUACUGACCCAUGCGGGAAUCCGCGUGUAGAAGGAGCAAAAG [jl-ex3-4.60 ViennaUCT mod] (Eterna round: R97, puzzle: Exclusion 3)”, the “apparent KD of MS2 coat protein” value was 33 nM (input ligand: FMN 200 uM) and 32.5 nM (input ligand: none).

In the case of “GGUCCACAUGAGGAUCACCCAUGUUAGGAUAUCUCCUGCCUCCUAAAUGGAAGCAGACAGAGAAGGAACAUCAA [Soanatra] (Eterna round: R96, puzzle: Exclusion 1)”, the “apparent KD of MS2 coat protein” value by setting is: (input ligand: FMN 200 uM) 113 nM; under setting [1], 21.8 nM; (input ligand: none) 25.4 nM.

With “GGUCCACAUGAGGAUCACCCAUGUUAGGAUAUCUCCUGCCUCCUAAAUGGAAGCAGACAGAGAAGGAACAUCAA [Soanatra] (puzzle: Exclusion 1)”, the “apparent KD of MS2 coat protein” value under setting [3] came to 24.5 nM.

On to “GGUCCACAUGAGGAUCACCCAUGUUAGGAUAUCUCGCCCGAGUCCAUAUGGGCCGGGCAGAGAAGGAAUGUGAA [Vevequbi] (puzzle: Exclusion 1)”, for which, under setting [3], the “apparent KD of MS2 coat protein” value came to 17.4 nM.

As for “GGUCGAAGUGUGAGGAUAUGCUGGUCCUUGGAUCAGCAGAAGGCACAUGAGGAUCACCCAUGUGGUAAACGACC [Mat - Exclusion 4 - Eli Mod - D34] (Eterna round: R97, puzzle: Brourd's mod of Exclusion 4)”, the “apparent KD of MS2 coat protein” value came to 982 nM (input ligand: FMN 200 uM) and 171 nM (input ligand: none).

In the case of “GGUCGACAUGAGGAUCACCCAUGUCAGGAUAUCGUCACUGGAGCUUCGGCUCCAGUGACGAGAAGGGACAUAAU [E1/14-A1] (Eterna round: R97, puzzle: Exclusion 1)”, the “apparent KD of MS2 coat protein” value is, setting by setting: (input ligand: FMN 200 uM) 39.5 nM; (input ligand: none) 39.2 nM.

“GGUCGGCGAGGAUAUACAUGAGGAUCACCCAUGUGAUAGAGUGCACGCGUACGUGUAUGUAGAAGGCGCUGACG [JL-ex3-3.29 salish99 mod] (puzzle: Exclusion 3)”: the “apparent KD of MS2 coat protein” value is 160 nM under setting [2], 34.2 nM under setting [3] and 66 nM under setting [4].

With “GGUCGGCGAGGAUAUACAUGAGGAUCACCCAUGUGAUAUAGUGCACGCGUACGUGUACGUAGAAGGCGCUGACG [JL-ex3-3.26 salish99 mod] (puzzle: Exclusion 3)”, the “apparent KD of MS2 coat protein” value stood at 39.6 nM under setting [2], 11.2 nM under setting [3] and 15.1 nM under setting [4].

Regarding “GGUCGUCAAGUCAGGAUAUCGUAUAGUCGAUGUAACGAGAAGGGACAUGAGGAUCACCCAUGUCGUCUCAUCAG [Ex4 #25] (Eterna round: R97, puzzle: Brourd's mod of Exclusion 4)”, the “apparent KD of MS2 coat protein” value was 18.2 nM (input ligand: FMN 200 uM) and 17.7 nM (input ligand: none).

Turning to “GGUCUGCGAGGAUAUACAUGAGGAUCACCCAUGUGAGUGAUACUAGUGAGGUCGAUUGGUAGAAGGCGCGGACG [JL-ex3-2.05 salish99 mod] (puzzle: Exclusion 3)”, the “apparent KD of MS2 coat protein” value by setting is: under setting [2], 37 nM; under setting [3], 445 nM; under setting [4], 839 nM.

“GGUGAGCUAGGAUAUGCUUUGGGCUCGCUUUCCUUCGAUAAACUUGAGGAUCACCCAAGUAGAAGGAGCUUGCC [salish99_ex2_r4_033] (Eterna round: R97, puzzle: Exclusion 2)”: the “apparent KD of MS2 coat protein” value (input ligand: FMN 200 uM) was 14.8 nM and the “apparent KD of MS2 coat protein” value (input ligand: none) came to 12 nM.

As to “GGUGAGCUAGGAUAUGCUUUGGGCUCGCUUUCCUUCGUUUUACUUGAGGAUCACCCAAGUAGAAGGAGCUUGCC [salish99_ex2_r4_036] (Eterna round: R97, puzzle: Exclusion 2)”, the “apparent KD of MS2 coat protein” value amounted to 13.9 nM (input ligand: FMN 200 uM) and 12.2 nM (input ligand: none).

Take “GGUGCGUAUGUGAGGAUAUGCUGGUCCUUGGCUCGGCAGAAGGCACAUGAGGAUCACCCAUGUGGUGUCGUACU [salish99_Bmod_ex4_068] (puzzle: Brourd's mod of Exclusion 4)”: the “apparent KD of MS2 coat protein” value under setting [3] turned out to be 96.8 nM.

“GGUGGUAUGUCAGGAUAUACAGCCUAAAUGGAAGUAGAAGGGACACAUGAGGGUCACCCAUGUGACAUGAGGAUCACCCAUGUA [Hi3 10-05-2015] (Eterna round: R96, puzzle: Exclusion NG 1)”: the “apparent KD of MS2 coat protein” value reads like this: (input ligand: FMN 200 uM) 64 nM; under setting [1], 41.1 nM; (input ligand: none) 60.7 nM.

As for “GGUUAUUGCAAGGAUAUGCUAUUAUUUUAUUUUGCAGAAGGUGCAACAUGAGGAUCACCCAUGUUGGAGGGUUU [JR_E6_Sub024] (puzzle: Exclusion 6)”, the “apparent KD of MS2 coat protein” value under setting [3] was 17.9 nM.

“GGUUGACAUGAGGAUCACCCAUGUGAGGAUAUGCGAGAGAAAAAAGUGAGGAAGAAAAGCAGAAGGCGCUGACG [salish99-ex1_r3_002] (puzzle: Exclusion 1)”: the “apparent KD of MS2 coat protein” value is, setting by setting: under setting [2], 15.5 nM; under setting [3], 28.6 nM; under setting [4], 13.5 nM.

With “GGUUGACAUGAGGAUCACCCAUGUGAGGAUAUGCGAGAGAAAAAAGUGAGGAAGAAAAGCAGAAGGCGCUGUCG [salish99-ex1_r3_003] (puzzle: Exclusion 1)”, the “apparent KD of MS2 coat protein” value is 29.8 nM under setting [2], 22.4 nM under setting [3] and 45.5 nM under setting [4].

With “GGUUGACAUGAGGAUCACCCAUGUGAGGAUAUGCGAGAGAAAAAAGUGAGGAAGAUAAGCAGAAGGCGCUGUCG [salish99-ex1_r3_013] (puzzle: Exclusion 1)”, the “apparent KD of MS2 coat protein” value by setting is: under setting [2], 118 nM; under setting [3], 178 nM; under setting [4], 260 nM.

Consider “GGUUGCGCAGGAUAUACAUGAGGAUCACCCAUGUGAGAGAAAUAAGUGAGGAAGAAAAGUAGAAGGGCGUGACG [Mat - Exclusion 3 - Mod of Salish D72] (puzzle: Exclusion 3)”, for which the “apparent KD of MS2 coat protein” value turned out to be 170 nM under setting [2], 37.7 nM under setting [3] and 68.9 nM under setting [4].

For the sequence “GGUUGGCGAGGAUAUACAUGAGGAUCACCCAUGUGAGAGAAAACAGUGAGGAAGAAAAGUAGAAGGCGCUGACG [salish99_ex3_r3_024] (puzzle: Exclusion 3)”, the “apparent KD of MS2 coat protein” value reads like this: under setting [2], 466 nM; under setting [3], 52.6 nM; under setting [4], 48 nM.

For “GGUUGGCGAGGAUAUACAUGAGGAUCACCCAUGUGAGAGAUACUAGUGAGGUCGAUUAGUAGAAGGCGCUGACG [JL-ex3-2.01 salish99 mod] (puzzle: Exclusion 3)”, the “apparent KD of MS2 coat protein” value amounted to 174 nM under setting [2], 31.1 nM under setting [3] and 32.2 nM under setting [4].

For the sequence “GUAAAAUAAGCUUAUUUACACAUGAGGAUCACCCAUGUAUUGGACGGACUCCUGACCUCAAUUAUAUGCUCGUAUCG [Eternabot (L1) Solution 41] (Eterna round: R97, puzzle: Sensor, turn-off variant 1)”, the “apparent KD of MS2 coat protein” value is, setting by setting: (input ligand: FMN 200 uM) 77.6 nM; (input ligand: none) 79.5 nM.

As for “GUAAAGGUAGGAUAUACGAAGAAAAAGGGUAGAAGAAGAACACAUGAGGAUCACCCAUGUAGAAGGACCAAAUG [Mat - Exclusion 2 - Mod of my Tesla design - D4] (puzzle: Exclusion 2)”, the “apparent KD of MS2 coat protein” value under setting [2] stood at 63.9 nM, the “apparent KD of MS2 coat protein” value under setting [3] came to 24.8 nM and the “apparent KD of MS2 coat protein” value under setting [4] amounted to 28.5 nM.
